# Data from patent US10738340B2, “Methods and materials for enzymatic synthesis of mogroside compounds” (EVOLVA SA, priority 2011, dated 2020).
# Assay: In vitro UGT screening: reactions of mogrol with a panel of 230 UGT enzymes, products analyzed with LC-MS
# Type: biochemical
# Settings: for position of mogrol glycosylated by the UGT: aglycone mogrol as substrate, see FIG. 2; for product formed from mogrol substrate in the in vitro UGT reaction (LC-MS): partially purified UGT enzyme or crude enzyme extract
# Experimental: In vitro reactions of mogrol with a panel of 230 UGT enzymes were performed and the products were analyzed with LC-MS. The in vitro UGT reaction mixtures included 4× Tris buffer, mogrol (250 μM), UDP-glucose (750 μM) and 1% alkaline phosphatase. Five μl of each partially purified UGT enzyme or crude enzyme extract was added to the reaction, and the reaction volume brought to 50 μl with water. The reactions were incubated overnight at 30° C. and performed in sterilized 96 well plates. After the incubation, 25 μL of DMSO were added into each reaction and the reaction plates were centrifuged for 5 min. Forty μL samples were taken from each well and filtered, and were used for LC-MS analysis.
# [1] = mogrol 250 μM, UDP-glucose 750 μM, overnight at 30° C.
Molecule,position of mogrol glycosylated by the UGT,completeness of the mogrol glycosylation reaction [1],product formed from mogrol substrate in the in vitro UGT reaction (LC-MS) [1]
"UGT 73C6: UDP dependent glucosyltransferase from Arabidopsis thaliana, glycosyltransferase family I, SEQ ID NO:3 (protein, listed as Arabidopsis thaliana) MAFEKNNEPFPLHFVLFPFMAQGHMIPMVDIARLLAQRGVLITIVTTPHNAARFKNVLNRAIESGLPINLVQVKFPYQEAGLQEGQENMDLLTTMEQITSFFKAVNLLKEPVQNLIEEMSPRPSCLISDMCLSYTSEIAKKFKIPKILFHGMGCFCLLCVNVLRKNREILDNLKSDKEYFIVPYFPDRVEFTRPQVPVETYVPAGWKEILEDMVEADKTSYGVIVNSFQELEPAYAKDFKEARSGKAWTIGPVSLCNKVGVDKAERGNKSDIDQDECLEWLDSKEPGSVLYVCLGSICNLPLSQLLELGLGLEESQRPFIWVIRGWEKYKELVEWFSESGFEDRIQDRGLLIKGWSPQMLILSHPSVGGFLTHCGWNSTLEGITAGLPMLTWPLFADQFCNEKLVVQILKVGVSAEVKEVMKWGEEEKIGVLVDKEGVKKAVEELMGESDDAKERRRRAKELGESAHKAVEEGGSSHSNITFLLQDIMQLAQSNN",glycosylate at the C24-OH position,,convert all the mogrol substrate to mogroside Ib
"UGT 73C3: UDP dependent glucosyltransferase from Arabidopsis thaliana, glycosyltransferase family I, SEQ ID NO:1 (protein, listed as Arabidopsis thaliana) MATEKTHQFHPSLHFVLFPFMAQGHMIPMIDIARLLAQRGVTITIVTTPHNAARFKNVLNRAIESGLAINILHVKFPYQEFGLPEGKENIDSLDSTELMVPFFKAVNLLEDPVMKLMEEMKPRPSCLISDWCLPYTSIIAKNFNIPKIVFHGMGCFNLLCMHVLRRNLEILENVKSDEEYFLVPSFPDRVEFTKLQLPVKANASGDWKEIMDEMVKAEYTSYGVIVNTFQELEPPYVKDYKEAMDGKVWSIGPVSLCNKAGADKAERGSKAAIDQDECLQWLDSKEEGSVLYVCLGSICNLPLSQLKELGLGLEESRRSFIWVIRGSEKYKELFEWMLESGFEERIKERGLLIKGWAPQVLILSHPSVGGFLTHCGWNSTLEGITSGIPLITWPLFGDQFCNQKLVVQVLKAGVSAGVEEVMKWGEEDKIGVLVDKEGVKKAVEELMGDSDDAKERRRRVKELGELAHKAVEKGGSSHSNITLLLQDIMQLAQFKN",glycosylate at the C24-OH position,,convert all the mogrol substrate to mogroside Ib
"UGT 73C5: UDP dependent glucosyltransferase from Arabidopsis thaliana, glycosyltransferase family I, SEQ ID NO:2 (protein, listed as Arabidopsis thaliana) MVSETTKSSPLHFVLFPFMAQGHMIPMVDIARLLAQRGVIITIVTTPHNAARFKNVLNRAIESGLPINLVQVKFPYLEAGLQEGQENIDSLDTMERMIPFFKAVNFLEEPVQKLIEEMNPRPSCLISDFCLPYTSKIAKKFNIPKILFHGMGCFCLLCMHVLRKNREILDNLKSDKELFTVPDFPDRVEFTRTQVPVETYVPAGDWKDIFDGMVEANETSYGVIVNSFQELEPAYAKDYKEVRSGKAWTIGPVSLCNKVGADKAERGNKSDIDQDECLKWLDSKKHGSVLYVCLGSICNLPLSQLKELGLGLEESQRPFIWVIRGWEKYKELVEWFSESGFEDRIQDRGLLIKGWSPQMLILSHPSVGGFLTHCGWNSTLEGITAGLPLLTWPLFADQFCNEKLVVEVLKAGVRSGVEQPMKWGEEEKIGVLVDKEGVKKAVEELMGESDDAKERRRRAKELGDSAHKAVEEGGSSHSNISFLLQDIMELAEPNN",glycosylates at both the C3-OH (UGT #1 in FIG. 2) and C24-OH position,,makes both mogroside Ia and Ib

# Second part, led by results:
position of mogrol glycosylated by the UGT,completeness of the mogrol glycosylation reaction [1],Molecule,product formed from mogrol substrate in the in vitro UGT reaction (LC-MS) [1]
glycosylate at the C24-OH position,the reaction was not complete,"UGT 73E1: UDP dependent glucosyltransferase from Stevia rebaudiana, glycosyltransferase family I, SEQ ID NO:4 (protein, listed as Stevia rebaudiana) MSPKMVAPPTNLHFVLFPLMAQGHLVPMVDIARILAQRGATVTIITTPYHANRVRPVISRAIATNLKIQLLELQLRSTEAGLPEGCESFDQLPSFEYWKNISTAIDLLQQPAEDLLRELSPPPDCIISDFLFPWTTDVARRLNIPRLVFNGPGCFYLLCIHVAITSNILGENEPVSSNTERVVLPGLPDRIEVTKLQIVGSSRPANVDEMGSWLRAVEAEKASFGIVVNTFEELEPEYVEEYKTVKDKKMWCIGPVSLCNKTGPDLAERGNKAAITEHNCLKWLDERKLGSVLYVCLGSLARISAAQAIELGLGLESINRPFIWCVRNETDELKTWFLDGFEERVRDRGLIVHGWAPQVLILSHPTIGGFLTHCGWNSTIESITAGVPMITWPFFADQFLNEAFIVEVLKIGVRIGVERACLFGEEDKVGVLVKKEDVKKAVECLMDEDEDGDQRRKRVIELAKMAKIAMAEGGSSYENVSSLIRDVTETVRAPH","mogroside Ib was found as the major product, together with a new glycosylated mogrol"
glycosylate at the C24-OH position,,"UGT 85C2: UDP dependent glucosyltransferase from Stevia rebaudiana, glycosyltransferase family I, SEQ ID NO:5 (protein, listed as Stevia rebaudiana) MDAMATTEKKPHVIFIPFPAQSHIKAMLKLAQLLHHKGLQITFVNTDFIHNQFLESSGPHCLDGAPGFRFETIPDGVSHSPEASIPIRESLLRSIETNFLDRFIDLVTKLPDPPTCIISDGFLSVFTIDAAKKLGIPVMMYWTLAACGFMGFYHIHSLIEKGFAPLKDASYLTNGYLDTVIDWVPGMEGIRLKDFPLDWSTDLNDKVLMFTTEAPQRSHKVSHHIFHTFDELEPSIIKTLSLRYNHIYTIGPLQLLLDQIPEEKKQTGITSLHGYSLVKEEPECFQWLQSKEPNSVVYVNFGSTTVMSLEDMTEFGWGLANSNHYFLWIIRSNLVIGENAVLPPELEEHIKKRGFIASWCSQEKVLKHPSVGGFLTHCGWGSTIESLSAGVPMICWPYSWDQLTNCRYICKEWEVGLEMGTKVKRDEVKRLVQELMGEGGHKMRNKAKDWKEKARIAIAPNGSSSLNIDKMVKEITVLARN",convert all the mogrol substrate to mogroside Ib
